Where two headings read alike, the source gives them in different places. Marks after values point to notes of the source that are not given here.
Key:
SULT1E1 [1] = assay: SULT1E1 allozyme substrate kinetics (apparent Km, Vmax) with E2 and PAPS as cosubstrates; format: biochemical, human; details: for Vmax, PAPS as Varied Substrate / Km / Vmax, E2 as Varied Substrate: mean ± SEM (n = 3); for apparent Km for PAPS, fold higher than the wild type enzyme: PAPS as substrate; for apparent Km for PAPS, fold higher than the wild type enzyme / apparent Km for estradiol, fold higher than the wild type enzyme: versus wild type; for apparent Km for estradiol, fold higher than the wild type enzyme: estradiol as substrate
Source text: Other biochemical properties of allozymes, such as apparent Km values, also can be altered relative to the reference SULT1E1. Apparent Km values can be calculated, for example, by using the method of Wilkinson with a computer program written by Cleland. Wilkinson (1961) Biochem. J. 80:324-332 and Cleland (1963) Nature 198:463-365. As described herein, the apparent Km values for PAPS varied more than 3-fold among the allozymes tested (Asp22Tyr, Ala32Val, and Pro253His).
Apparent Km values for each allozyme were determined with both cosubstrates. Initial experiments used 10-fold serial dilutions of E2 that ranged from 10^−3 to 10^−9 M. Apparent Km values were calculated by using the method of Wilkinson with a computer program written by Cleland (see, Wilkinson (1961) Biochem J 80:324-332; and Cleland (1963) Nature 198:463-365). Maximal activity for all allozymes was found at E2 concentrations near 100 nM. A second set of experiments was performed in the presence of 0.4 μM PAPS using eight concentrations of E2 that varied from 3.1 nM to 400 nM.

SULT1E1 [2] = assay: Enzyme thermal stability (T50) of recombinant SULT1E1 allozymes; format: physicochemical, human; details: for T50 value as compared to the wild-type enzyme: in words; for Thermal Stability T50: temperature resulting in 50% thermal inactivation, 15 minutes at 28° C. to 46° C., mean ± SEM (n = 3)
Procedure: Enzyme thermal stability was measured by diluting COS-1 cell supernatant preparations for each of the recombinant SULT1E1 allozymes and incubating them in a water bath for 15 minutes at temperatures ranging from 28° C. to 46° C. The samples were placed on ice immediately after incubation. Aliquots of the same supernatant preparations also were kept on ice as controls. Enzyme activity was measured in both heated and unheated samples, and blank values were determined for each temperature studied.

[3] = 50 nM E2, PAPS 2.7 nM to 150 nM
[4] = 50 nM E2, PAPS 2.7 nM to 150 nM, read-out: Apparent Km, PAPS as Varied Substrate
[5] = 0.4 μM PAPS, E2 3.1 nM to 400 nM
[6] = 0.4 μM PAPS, E2 3.1 nM to 400 nM, read-out: Apparent Km, E2 as Varied Substrate

| Molecule | Vmax, PAPS as Varied Substrate (SULT1E1 [1]; [3]) | Km (SULT1E1 [1]; [4]) [µM] | Vmax, E2 as Varied Substrate (SULT1E1 [1]; [5]) | Km (SULT1E1 [1]; [6]) [µM] | apparent Km for PAPS, fold higher than the wild type enzyme (SULT1E1 [1]) | apparent Km for estradiol, fold higher than the wild type enzyme (SULT1E1 [1]) | T50 value as compared to the wild-type enzyme (SULT1E1 [2]) | Thermal Stability T50 (SULT1E1 [2]) |
| --- | --- | --- | --- | --- | --- | --- | --- | --- |
| Ala32Val: SULT1E1 allozyme with valine in place of alanine at residue 32 (thymine at nucleotide 95) (protein, UniProt P49888 1-294, looked up, variant A32V) Sulfotransferase 1E1: MNSELDYYEKFEEVHGILMYKDFVKYWDNVEVFQARPDDLVIATYPKSGTTWVSEIVYMIYKEGDVEKCKEDVIFNRIPFLECRKENLMNGVKQLDEMNSPRIVKTHLPPELLPASFWEKDCKIIYLCRNAKDVAVSFYYFFLMVAGHPNPGSFPEFVEKFMQGQVPYGSWYKHVKSWWEKGKSPRVLFLFYEDLKEDIRKEVIKLIHFLERKPSEELVDRIIHHTSFQEMKNNPSTNYTTLPDEIMNQKLSPFMRKGITGDWKNHFTVALNEKFDKHYEQQMKESTLKFRTEI | 5.7 ± 0.1^a nmol/hr/β-galactosidase units | 0.065 ± 0.0042 | 22.8 ± 6.6 nmol/hr/β-galactosidase units | 0.044 ± 0.005 | comparable to those of the wild type SULT1E1 enzyme | comparable to those of the wild type SULT1E1 enzyme | reduced T50 values | 36.7 ± 1.2 °C |
| Pro253His: SULT1E1 allozyme with histidine in place of proline at residue 253 (adenine at nucleotide 758) (protein, UniProt P49888 1-294, looked up, variant P253H) Sulfotransferase 1E1: MNSELDYYEKFEEVHGILMYKDFVKYWDNVEAFQARPDDLVIATYPKSGTTWVSEIVYMIYKEGDVEKCKEDVIFNRIPFLECRKENLMNGVKQLDEMNSPRIVKTHLPPELLPASFWEKDCKIIYLCRNAKDVAVSFYYFFLMVAGHPNPGSFPEFVEKFMQGQVPYGSWYKHVKSWWEKGKSPRVLFLFYEDLKEDIRKEVIKLIHFLERKPSEELVDRIIHHTSFQEMKNNPSTNYTTLPDEIMNQKLSHFMRKGITGDWKNHFTVALNEKFDKHYEQQMKESTLKFRTEI | 34.8 ± 0.2^a nmol/hr/β-galactosidase units | 0.18 ± 0.0075 | 58.6 ± 2.5^b nmol/hr/β-galactosidase units | 0.097 ± 0.007 | ~2.8 fold | approximately 2.5 fold | – | 38.4 ± 0.46 °C |
| Wild type: reference human SULT1E1 enzyme (SEQ ID NO:7, GenBank U08098), recombinantly expressed in COS-1 cells (protein, listed as Homo sapiens) MNSELDYYEKFEEVHGILMYKDFVKYWDNVEAFQARPDDLVIATYPKSGTTWVSEIVYMIYKEGDVEKCKEDVIFNRIPFLECRKENLMNGVKQLDEMNSPRIVKTHLPPELLPASFWEKDCKIIYLCRNAKDVAVSFYYFFLMVAGHPNPGSFPEFVEKFMQGQVPYGSWYKHVKSWWEKGKSPRVLFLFYEDLKEDIRKEVIKLIHFLERKPSEELVDRIIHHTSFQEMKNNPSTNYTTLPDEIMNQKLSPFMRKGITGDWKNHFTVALNEKFDKHYEQQMKESTLKFRTEI | 27.2 ± 0.7^a nmol/hr/β-galactosidase units | 0.056 ± 0.0029 | 26.8 ± 4.4 nmol/hr/β-galactosidase units | 0.03 ± 0.005 | – | – | – | 38.5 ± 0.92 °C |
| Asp22Tyr: SULT1E1 allozyme with tyrosine in place of aspartic acid at residue 22 (thymine at nucleotide 64) (protein, UniProt P49888 1-294, looked up, variant D22Y) Sulfotransferase 1E1: MNSELDYYEKFEEVHGILMYKYFVKYWDNVEAFQARPDDLVIATYPKSGTTWVSEIVYMIYKEGDVEKCKEDVIFNRIPFLECRKENLMNGVKQLDEMNSPRIVKTHLPPELLPASFWEKDCKIIYLCRNAKDVAVSFYYFFLMVAGHPNPGSFPEFVEKFMQGQVPYGSWYKHVKSWWEKGKSPRVLFLFYEDLKEDIRKEVIKLIHFLERKPSEELVDRIIHHTSFQEMKNNPSTNYTTLPDEIMNQKLSPFMRKGITGDWKNHFTVALNEKFDKHYEQQMKESTLKFRTEI | 1.9 ± 0.1^a nmol/hr/β-galactosidase units | 0.24 ± 0.0092 | 4.7 ± 0.3^b nmol/hr/β-galactosidase units | 0.22 ± 0.03 | 3.3 fold | 6 fold | reduced T50 values | 35.0 ± 0.32^c ° C. |
